# IntAct's records for PubMed 29892012
# B1: Galectin-8 (Homo sapiens), O00214 (parent)
# chain: MMLSLNNLQNIIYNPVIPFVGTIPDQLDPGTLIVIRGHVPSDADRFQVDLQNGSSMKPRADVAFHFNPRFKRAGCIVCNTLINEKWGREEITYDTPFKREKSFEIVIMVLKDKFQVAVNGKHTLLYGHRIGPEKIDTLGIYGKVNIHSIGFSFSSDLQSTQASSLELTEISRENVPKSGTPQLRLPFAARLNTPMGPGRTVVVKGEVNANAKSFNVDLLAGKSKDIALHLNPRLNIKAFVRNSFLQESWGEEERNITSFPFSPGMYFEMIIYCDVREFKVAVNGVHSLEYKHRFKELSSIDTLEINGDIHLLEVRSW
# partner: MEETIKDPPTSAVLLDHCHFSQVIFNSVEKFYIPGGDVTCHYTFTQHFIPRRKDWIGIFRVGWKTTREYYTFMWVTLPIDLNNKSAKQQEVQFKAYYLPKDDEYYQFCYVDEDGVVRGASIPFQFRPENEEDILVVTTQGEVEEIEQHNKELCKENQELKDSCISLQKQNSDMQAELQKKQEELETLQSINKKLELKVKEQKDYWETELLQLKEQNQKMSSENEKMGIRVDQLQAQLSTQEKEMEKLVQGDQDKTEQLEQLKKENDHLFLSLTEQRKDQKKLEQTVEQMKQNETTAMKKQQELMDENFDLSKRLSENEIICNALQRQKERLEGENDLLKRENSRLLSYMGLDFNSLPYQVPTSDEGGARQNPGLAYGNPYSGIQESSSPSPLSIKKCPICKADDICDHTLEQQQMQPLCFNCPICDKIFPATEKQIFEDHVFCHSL
# B2: Abl interactor 2 (Homo sapiens), Q9NYB9 (parent)
# chain: MAELQMLLEEEIPGGRRALFDSYTNLERVADYCENNYIQSADKQRALEETKAYTTQSLASVAYLINTLANNVLQMLDIQASQLRRMESSINHISQTVDIHKEKVARREIGILTTNKNTSRTHKIIAPANLERPVRYIRKPIDYTILDDIGHGVKWLLRFKVSTQNMKMGGLPRTTPPTQKPPSPPMSGKGTLGRHSPYRTLEPVRPPVVPNDYVPSPTRNMAPSQQSPVRTASVNQRNRTYSSSGSSGGSHPSSRSSSRENSGSGSVGVPIAVPTPSPPSVFPAPAGSAGTPPLPATSASAPAPLVPATVPSSTAPNAAAGGAPNLADGFTSPTPPVVSSTPPTGHPVQFYSMNRPASRHTPPTIGGSLPYRRPPSITSQTSLQNQMNGGPFYSQNPVSDTPPPPPPVEEPVFDESPPPPPPPEDYEEEEAAVVEYSDPYAEEDPPWAPRSYLEKVVAIYDYTKDKEDELSFQEGAIIYVIKKNDDGWYEGVMNGVTGLFPGNYVESIMHYSE
# partner: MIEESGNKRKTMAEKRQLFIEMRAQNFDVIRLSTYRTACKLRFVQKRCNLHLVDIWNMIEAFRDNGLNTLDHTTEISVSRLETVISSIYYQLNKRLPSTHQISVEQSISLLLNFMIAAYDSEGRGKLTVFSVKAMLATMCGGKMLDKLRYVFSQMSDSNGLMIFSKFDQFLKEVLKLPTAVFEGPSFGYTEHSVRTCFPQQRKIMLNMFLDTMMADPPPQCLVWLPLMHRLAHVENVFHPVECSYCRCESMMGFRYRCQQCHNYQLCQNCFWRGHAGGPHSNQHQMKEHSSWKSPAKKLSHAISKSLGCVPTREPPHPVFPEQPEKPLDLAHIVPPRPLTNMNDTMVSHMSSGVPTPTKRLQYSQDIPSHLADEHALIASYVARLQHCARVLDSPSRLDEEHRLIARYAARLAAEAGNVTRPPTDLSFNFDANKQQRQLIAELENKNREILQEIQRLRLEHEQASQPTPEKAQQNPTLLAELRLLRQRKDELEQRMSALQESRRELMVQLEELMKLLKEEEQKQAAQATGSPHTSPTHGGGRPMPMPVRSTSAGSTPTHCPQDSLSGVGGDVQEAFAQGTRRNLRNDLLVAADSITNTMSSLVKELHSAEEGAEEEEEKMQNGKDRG
# B3: Late cornified envelope protein 1B (Homo sapiens), Q5T7P3 (parent)
# chain: MSCQQNQQQCQPPPKCIPKCPPKCLTPRCPPKCPPKCPPVSSCCSVSSGGCCGSSSGGSCGSSSGGCCSSGGGGCCLSHHRRRRSHCHRPQSSGCCSQPSGGSSCCGGGSGQHSGGCC
# partner: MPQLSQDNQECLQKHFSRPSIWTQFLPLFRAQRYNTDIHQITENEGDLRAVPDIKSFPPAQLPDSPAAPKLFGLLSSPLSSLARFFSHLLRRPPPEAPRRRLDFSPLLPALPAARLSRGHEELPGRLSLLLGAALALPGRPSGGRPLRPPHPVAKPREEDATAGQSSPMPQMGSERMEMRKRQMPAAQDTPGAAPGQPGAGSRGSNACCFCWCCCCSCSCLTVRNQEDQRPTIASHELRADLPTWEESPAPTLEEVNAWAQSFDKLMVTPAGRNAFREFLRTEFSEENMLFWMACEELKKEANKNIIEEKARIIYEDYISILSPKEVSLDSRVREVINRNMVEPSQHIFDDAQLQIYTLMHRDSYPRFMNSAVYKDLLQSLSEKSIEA
# B4: Abl interactor 2 (Homo sapiens), Q9NYB9 (parent)
# chain: B2 chain
# partner: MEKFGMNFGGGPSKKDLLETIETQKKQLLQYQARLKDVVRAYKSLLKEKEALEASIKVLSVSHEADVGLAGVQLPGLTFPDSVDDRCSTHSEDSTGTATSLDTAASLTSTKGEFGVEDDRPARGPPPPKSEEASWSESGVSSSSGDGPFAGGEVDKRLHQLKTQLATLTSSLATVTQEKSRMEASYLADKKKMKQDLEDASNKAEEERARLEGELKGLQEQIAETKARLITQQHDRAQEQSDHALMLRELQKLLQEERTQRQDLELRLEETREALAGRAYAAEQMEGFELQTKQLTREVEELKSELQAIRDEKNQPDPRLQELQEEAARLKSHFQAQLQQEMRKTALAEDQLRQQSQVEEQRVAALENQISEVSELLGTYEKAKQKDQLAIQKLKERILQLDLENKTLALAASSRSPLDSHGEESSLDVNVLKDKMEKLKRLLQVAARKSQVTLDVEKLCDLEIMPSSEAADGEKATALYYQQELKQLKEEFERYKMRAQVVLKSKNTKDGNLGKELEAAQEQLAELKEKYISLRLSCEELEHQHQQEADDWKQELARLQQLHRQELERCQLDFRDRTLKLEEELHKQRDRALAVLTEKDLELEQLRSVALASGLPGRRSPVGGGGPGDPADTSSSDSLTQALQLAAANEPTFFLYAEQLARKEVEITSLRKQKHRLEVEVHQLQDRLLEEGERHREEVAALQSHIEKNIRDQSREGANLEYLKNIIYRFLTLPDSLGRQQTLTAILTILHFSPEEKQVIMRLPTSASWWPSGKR
# B5: MOB kinase activator 3C (Homo sapiens), Q70IA8 (parent)
# chain: MALCLKQVFAKDKTFRPRKRFEPGTQRFELYKKAQASLKSGLDLRSVVRLPPGENIDDWIAVHVVDFFNRINLIYGTMAERCSETSCPVMAGGPRYEYRWQDERQYRRPAKLSAPRYMALLMDWIEGLINDEEVFPTRVGVPFPKNFQQVCTKILTRLFRVFVHVYIHHFDSILSMGAEAHVNTCYKHFYYFIREFSLVDQRELEPLREMTERICH
# partner: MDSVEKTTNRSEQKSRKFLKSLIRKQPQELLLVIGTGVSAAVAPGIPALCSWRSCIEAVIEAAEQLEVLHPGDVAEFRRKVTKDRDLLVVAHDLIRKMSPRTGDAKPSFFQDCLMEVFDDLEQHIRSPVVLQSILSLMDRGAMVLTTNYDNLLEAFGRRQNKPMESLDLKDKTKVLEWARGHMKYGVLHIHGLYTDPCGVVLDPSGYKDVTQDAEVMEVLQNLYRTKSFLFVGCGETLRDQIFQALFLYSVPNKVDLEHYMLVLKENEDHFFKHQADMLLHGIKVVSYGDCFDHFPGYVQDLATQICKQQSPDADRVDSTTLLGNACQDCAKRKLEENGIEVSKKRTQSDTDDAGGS
# Variants of: B1
# Settings: with caco2_human CALCOCO2, Q13137
row,effect of a mutation on the interaction,Variant
1,with no effect,P194T

# Variants of: B2
# Settings: with dtnb_human DTNB
row,effect of a mutation on the interaction,Variant
1,with no effect,R373C

# Variants of: B2
# Settings: with dtnb_human DTNB
# Remark: another data set of the same source
row,effect of a mutation on the interaction,Variant
1,with no effect,E202K

# Variants of: B3
# Settings: with rgs20_human RGS20, O76081
row,effect of a mutation on the interaction,Variant
1,with no effect,C16Y

# Variants of: B4
# Settings: with gcc1_human GCC1, Q96CN9
row,effect of a mutation on the interaction,Variant
1,with no effect,E202K

# Variants of: B5
# Settings: with FAM118A
row,effect of a mutation on the interaction,Variant
1,disrupting interaction strength,I173F
